Source: PMC11284795, “Development of Zalfermin, a Long-Acting Proteolytically Stabilized FGF21 Analog” (Journal of Medicinal Chemistry, 2024)

T1: mouse beta-klotho (KLB) on HEK293 cells (mouse, UniProt Q99N32 1-1043)
T1 sequence (looked up): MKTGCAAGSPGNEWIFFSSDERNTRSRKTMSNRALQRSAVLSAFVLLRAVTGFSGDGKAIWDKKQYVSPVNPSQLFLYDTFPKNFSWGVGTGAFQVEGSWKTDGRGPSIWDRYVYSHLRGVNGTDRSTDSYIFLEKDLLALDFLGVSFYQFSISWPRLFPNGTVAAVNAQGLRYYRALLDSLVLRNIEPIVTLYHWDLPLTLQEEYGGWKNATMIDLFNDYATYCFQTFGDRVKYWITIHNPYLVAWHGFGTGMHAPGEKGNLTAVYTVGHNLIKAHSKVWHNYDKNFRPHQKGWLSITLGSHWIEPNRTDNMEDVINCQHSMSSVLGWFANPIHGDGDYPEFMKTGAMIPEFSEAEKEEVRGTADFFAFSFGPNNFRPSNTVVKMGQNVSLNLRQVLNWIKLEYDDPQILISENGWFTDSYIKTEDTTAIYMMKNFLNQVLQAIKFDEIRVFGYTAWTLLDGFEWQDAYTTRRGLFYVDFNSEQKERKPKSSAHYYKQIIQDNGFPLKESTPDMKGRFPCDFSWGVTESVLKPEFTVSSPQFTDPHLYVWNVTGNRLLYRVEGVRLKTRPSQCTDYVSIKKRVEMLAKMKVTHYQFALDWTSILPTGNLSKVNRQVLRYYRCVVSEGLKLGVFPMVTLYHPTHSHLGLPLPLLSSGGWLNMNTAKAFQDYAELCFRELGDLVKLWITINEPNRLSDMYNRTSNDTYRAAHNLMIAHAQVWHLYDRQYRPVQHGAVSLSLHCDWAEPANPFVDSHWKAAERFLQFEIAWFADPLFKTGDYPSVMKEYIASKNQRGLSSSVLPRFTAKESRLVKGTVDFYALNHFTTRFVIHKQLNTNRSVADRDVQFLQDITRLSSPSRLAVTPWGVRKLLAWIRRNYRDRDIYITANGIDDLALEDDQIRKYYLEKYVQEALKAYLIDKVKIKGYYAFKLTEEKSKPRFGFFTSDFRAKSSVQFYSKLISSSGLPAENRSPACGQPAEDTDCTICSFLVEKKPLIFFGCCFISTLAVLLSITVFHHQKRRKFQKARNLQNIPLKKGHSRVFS


What was measured:
[1] = target: T2, FGFR1c/KLB: ectodomain of human FGFR1c fused to Fc, with human beta-klotho (human, UniProt P11362 22-376; Q86Z14 53-996); experiment: cell-based or functional assay
[2] = target: FGFR3c/KLB: ectodomain of human FGFR3c fused to Fc, with human beta-klotho (human, UniProt P22607 23-375; Q86Z14 53-996); experiment: cell-based or functional assay
[3] = target: T2, FGFR1c/KLB: ectodomain of human FGFR1c …; experiment: AlphaScreen or HTRF; competition: biotinylated FGF21 on streptavidin donor beads, ectodomain of human FGFR1c, FGFR2c, FGFR3c or FGFR4 fused to Fc on Protein A acceptor beads, human KLB protein added; signal inhibited by increasing doses of FGF21 analog; 0.1% ovalbumin; indirect measure of binding affinity, reported as IC50; conditions: both partners purified
[4] = target: T3, human beta-klotho (KLB) on HEK293 cells (human, UniProt Q86Z14 1-1044); experiment: cell-based or functional assay
[5] = target: T1, mouse beta-klotho (KLB) on HEK293 cells; experiment: cell-based or functional assay
[6] = target: cynomolgus monkey beta-klotho (KLB) on HEK293 cells (cynomolgus monkey); experiment: cell-based or functional assay
[7] = target: T3, human beta-klotho (KLB) on HEK293 cells; experiment: cell-based or functional assay; remark: listed apart in the source
[8] = target: human serum albumin (HSA) (human, UniProt P02768 25-609); experiment: cell-based or functional assay
[9] = target: the molecule itself; experiment: AF4-MALS; 15 at 49-88 mg/mL in 10 mM phosphate, pH 8.2 with 2% glycerol, 1 uL injected; running buffer 10 mM phosphate pH 8.2 with 10 mM NaCl; analysed again after dilution to 5 mg/mL
[10] = target: BSA (albumin of the FAP incubations) (bovine, UniProt P02769 25-607); experiment: cell-based or functional assay
Sequence of BSA (albumin of the FAP incubations) (P02769 25-607): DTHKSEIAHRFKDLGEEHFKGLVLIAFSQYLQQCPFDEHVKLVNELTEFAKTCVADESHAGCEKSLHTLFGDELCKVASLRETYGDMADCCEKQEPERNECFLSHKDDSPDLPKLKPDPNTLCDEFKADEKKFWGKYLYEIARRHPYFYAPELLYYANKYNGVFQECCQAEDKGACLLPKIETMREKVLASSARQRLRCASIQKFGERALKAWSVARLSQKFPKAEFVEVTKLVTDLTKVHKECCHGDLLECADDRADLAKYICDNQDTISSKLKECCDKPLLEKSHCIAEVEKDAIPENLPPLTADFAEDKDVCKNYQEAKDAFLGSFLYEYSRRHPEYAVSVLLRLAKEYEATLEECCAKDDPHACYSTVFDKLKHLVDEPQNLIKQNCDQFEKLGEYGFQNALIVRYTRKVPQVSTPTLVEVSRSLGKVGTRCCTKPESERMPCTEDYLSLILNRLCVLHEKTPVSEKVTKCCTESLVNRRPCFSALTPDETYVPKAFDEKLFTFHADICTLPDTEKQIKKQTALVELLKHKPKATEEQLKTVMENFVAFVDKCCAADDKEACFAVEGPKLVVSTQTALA

| potency EC50 of ERK phosphorylation in Ba/F3 cells overexpressing human KLB and FGFR1c, 0% HSA [1] [nM] | potency EC50 of ERK phosphorylation in Ba/F3 cells overexpressing human KLB and FGFR3c (chimera with the kinase domain of FGFR1c), 0% HSA [2] [nM] | pIC50 [3] | mean EC50 of ERK phosphorylation in HEK293 cells overexpressing human KLB (species qualification) [4] [nM] | mean EC50 of ERK phosphorylation in HEK293 cells overexpressing mouse KLB [5] [nM] | mean EC50 of ERK phosphorylation in HEK293 cells overexpressing cynomolgus monkey KLB [6] [nM] | potency (EC50) of ERK phosphorylation in HEK293 cells transfected with human KLB, without HSA [7] [nM] | potency (EC50) of ERK phosphorylation in HEK293 cells transfected with human KLB, without HSA (with 0.1, 1.0 and 1.5% HSA: 1.4, 0.9 and 1.5 nM, Table 3) [7] [nM] | potency (EC50) of ERK phosphorylation in HEK293/human KLB cells with 0.1, 1.0 and 1.5% HSA: 23, 195 and 198 nM (3.3 nM without HSA) [8] [nM] | t1/2 of 15 toward degradation by FAP in vitro in the presence of 0.1% albumin (27–57 min for 1, 15 and 5 without albumin) [10] [h] | Binder | binding result [9] |
| --- | --- | --- | --- | --- | --- | --- | --- | --- | --- | --- | --- |
|  |  | 5.72 ± 0.02 |  |  |  | 39 |  |  |  | FGF21 analog 18 (-1A, 121Q, 168L, 181C; C18 fatty diacid on 181C) (ligand, human, C18 diacid gGlu-OEG-OEG-C2DA-Ac side chain on Cys181, single amino acid N-terminal extension (-1A), giving the N-terminus AHPIP; human FGF21, mature 181-residue hormone; numbers count on: the mature protein; source: E. coli BL21 (DE3)-derived strain, inclusion bodies, purified; side chain conjugated to the Cys, purified by anion exchange (MonoQ)) AHPIPDSSPLLQFGGQVRQRYLYTDDAQQTEAHLEIREDGTVGGAADQSPESLLQLKALKPGVIQILGVKTSRFLCQRPDGALYGSLHFDPEACSFRELLLEDGYNVYQSEAHGLPLHLPGQKSPHRDPAPRGPARFLPLPGLPPALPEPPGILAPQPPDVGSSDPLSLVGPSQGRSPSYAC |  |
|  |  | 5.79 ± 0.05 |  |  |  | 3.9 |  |  |  | FGF21 analog 17 (-1A, 121Q, 168L, 180C, des181; C18 fatty diacid on 180C) (ligand, human, C18 diacid gGlu-OEG-OEG-C2DA-Ac side chain on Cys180, single amino acid N-terminal extension (-1A), giving the N-terminus AHPIP; human FGF21, mature hormone without its last residue Ser181; numbers count on: the mature protein; source: E. coli BL21 (DE3)-derived strain, inclusion bodies, purified; side chain conjugated to the Cys, purified by anion exchange (MonoQ)) AHPIPDSSPLLQFGGQVRQRYLYTDDAQQTEAHLEIREDGTVGGAADQSPESLLQLKALKPGVIQILGVKTSRFLCQRPDGALYGSLHFDPEACSFRELLLEDGYNVYQSEAHGLPLHLPGQKSPHRDPAPRGPARFLPLPGLPPALPEPPGILAPQPPDVGSSDPLSLVGPSQGRSPSYC |  |

Further lines, the binder ahead of its results:

| Binder | potency EC50 of ERK phosphorylation in Ba/F3 cells overexpressing human KLB and FGFR1c, 0% HSA [1] [nM] | potency EC50 of ERK phosphorylation in Ba/F3 cells overexpressing human KLB and FGFR3c (chimera with the kinase domain of FGFR1c), 0% HSA [2] [nM] | pIC50 [3] | mean EC50 of ERK phosphorylation in HEK293 cells overexpressing human KLB (species qualification) [4] [nM] | mean EC50 of ERK phosphorylation in HEK293 cells overexpressing mouse KLB [5] [nM] | mean EC50 of ERK phosphorylation in HEK293 cells overexpressing cynomolgus monkey KLB [6] [nM] | potency (EC50) of ERK phosphorylation in HEK293 cells transfected with human KLB, without HSA [7] [nM] | potency (EC50) of ERK phosphorylation in HEK293 cells transfected with human KLB, without HSA (with 0.1, 1.0 and 1.5% HSA: 1.4, 0.9 and 1.5 nM, Table 3) [7] [nM] | potency (EC50) of ERK phosphorylation in HEK293/human KLB cells with 0.1, 1.0 and 1.5% HSA: 23, 195 and 198 nM (3.3 nM without HSA) [8] [nM] | t1/2 of 15 toward degradation by FAP in vitro in the presence of 0.1% albumin (27–57 min for 1, 15 and 5 without albumin) [10] [h] | binding result [9] |
| --- | --- | --- | --- | --- | --- | --- | --- | --- | --- | --- | --- |
| Met-FGF21 (1) (ligand, human, single amino acid N-terminal extension (-1M), giving the N-terminus MHPIP; human FGF21, mature 181-residue hormone (N-terminus HPIP, C-terminus Ser181); numbers count on: the mature protein; also called human FGF21 with N-terminal Met extension; -1M; source: E. coli BL21 (DE3)-derived strain, inclusion bodies, purified (Q Sepharose FF, Phenyl FF, Source 30Q where needed)) MHPIPDSSPLLQFGGQVRQRYLYTDDAQQTEAHLEIREDGTVGGAADQSPESLLQLKALKPGVIQILGVKTSRFLCQRPDGALYGSLHFDPEACSFRELLLEDGYNVYQSEAHGLPLHLPGNKSPHRDPAPRGPARFLPLPGLPPALPEPPGILAPQPPDVGSSDPLSMVGPSQGRSPSYAS | 3.7 | 10.8 | 6.56 ± 0.89 | 3 | 0.3 | 1.8 | 1.6 |  |  |  |  |
| stabilized backbone (4): -1A, 121Q, 168L FGF21 (ligand, human, single amino acid N-terminal extension (-1A), giving the N-terminus AHPIP; human FGF21, mature 181-residue hormone; numbers count on: the mature protein; also called stabilized backbone of 15; source: E. coli BL21 (DE3)-derived strain, inclusion bodies, purified (Q Sepharose FF, Phenyl FF, Source 30Q where needed)) AHPIPDSSPLLQFGGQVRQRYLYTDDAQQTEAHLEIREDGTVGGAADQSPESLLQLKALKPGVIQILGVKTSRFLCQRPDGALYGSLHFDPEACSFRELLLEDGYNVYQSEAHGLPLHLPGQKSPHRDPAPRGPARFLPLPGLPPALPEPPGILAPQPPDVGSSDPLSLVGPSQGRSPSYAS |  |  | 6.18 ± 0.1 |  |  |  |  | 2 |  |  |  |
| zalfermin (NNC0194-0499, 15) (ligand, human, C18 diacid gGlu-OEG-OEG-C2DA-Ac side chain on Cys180, single amino acid N-terminal extension (-1Ala), giving the N-terminus AHPIP; human FGF21, mature 181-residue hormone; numbers count on: the mature protein; 20.3 kDa; also called FGF21 analog 15; source: E. coli BL21 (DE3)-derived strain, inclusion bodies, purified; side chain conjugated to the Cys, purified by anion exchange (MonoQ)) AHPIPDSSPLLQFGGQVRQRYLYTDDAQQTEAHLEIREDGTVGGAADQSPESLLQLKALKPGVIQILGVKTSRFLCQRPDGALYGSLHFDPEACSFRELLLEDGYNVYQSEAHGLPLHLPGQKSPHRDPAPRGPARFLPLPGLPPALPEPPGILAPQPPDVGSSDPLSLVGPSQGRSPSYCS | 4.1 | 11.9 | 6.13 ± 0.8 | 2.8 | 0.1 | 1.4 | 3.3 |  | 198 | 7.47 | binds |
